Data: patent US20110287023A1 (AstraZeneca / MedImmune, published 2011)

T1: HMG2 coated on ELISA plates (Bos taurus (Bovine), UniProt P40673 2-209)
T1 construct: also called HMGB2; HMBG2
T1 sequence: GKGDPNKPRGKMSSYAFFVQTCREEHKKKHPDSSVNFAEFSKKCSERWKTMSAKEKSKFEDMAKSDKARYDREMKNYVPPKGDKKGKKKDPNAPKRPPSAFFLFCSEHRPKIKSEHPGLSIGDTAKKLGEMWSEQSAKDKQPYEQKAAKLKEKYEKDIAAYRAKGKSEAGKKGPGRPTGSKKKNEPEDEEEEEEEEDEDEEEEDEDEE

T2: HMG1 B Box peptide amino acids 91-169
T2 construct: also called HMG1 peptide 91-169
T2 peptide: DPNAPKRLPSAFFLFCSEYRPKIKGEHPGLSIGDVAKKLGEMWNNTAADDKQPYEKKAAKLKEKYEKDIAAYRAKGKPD

T3: HMG1 B Box peptide amino acids 150-183
T3 peptide: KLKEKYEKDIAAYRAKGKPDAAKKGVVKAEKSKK

T4: HMG1 purified from calf (bovine) thymus (bovine, UniProt P10103 2-215)
T4 construct: also called Calf thymus HMGB1; thymus HMG1
T4 sequence (looked up): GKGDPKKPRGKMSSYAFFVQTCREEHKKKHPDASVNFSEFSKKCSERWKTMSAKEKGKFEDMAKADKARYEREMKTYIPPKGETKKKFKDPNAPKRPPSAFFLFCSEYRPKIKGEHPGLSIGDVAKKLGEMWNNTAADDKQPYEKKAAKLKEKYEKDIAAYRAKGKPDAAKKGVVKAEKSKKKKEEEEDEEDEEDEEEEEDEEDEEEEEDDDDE

T5: HMGB1 in human brain tissue of multiple sclerosis plaques (human, UniProt P09429 1-215)
T5 construct: whole, on cells; tissue staining; also called HMGB1 in MS plaques
T5 sequence (looked up): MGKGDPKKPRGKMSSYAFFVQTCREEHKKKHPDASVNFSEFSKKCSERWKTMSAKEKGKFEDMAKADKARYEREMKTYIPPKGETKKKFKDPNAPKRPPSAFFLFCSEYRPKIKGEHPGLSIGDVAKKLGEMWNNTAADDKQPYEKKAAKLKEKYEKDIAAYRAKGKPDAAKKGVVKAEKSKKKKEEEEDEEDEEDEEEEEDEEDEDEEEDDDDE

B1: human anti-HMG1 antibody S12 (antibody, IgG1, V domains shown)
VH: EVQLLESGGGLVQPGGSLRLSCAASGFTFSKYIMHWVRQAPGKGLEWVSGIVPSGGLTEYADSVKGRFTISRDNSKNTLYLQMNSLRAEDTATYYCAKEIFGQFDYWGQGTLVTVSS
VL: AQSALTQPPSVSAAPRQRVTISCSGSTSNIGNNAVTWYQYFPGKAPKLLIYSDNQRPSGVPDRFSGSKSGTSASLAITGLQAEDEADYYCQSYDRGLSVVFGGGTKLTVL
notes: full length IgG1 made from a human Fab phage clone
B2: complex of thymus HMGB1 with CpG-A DNA (other, bovine, UniProt P10103 2-215, looked up)
chain: T4 sequence (looked up)
notes: also called HMGB1/CpG complex; HMGB1/CpG A complex
B3: human anti-HMG1 antibody G16 (antibody, IgG1, V domains shown)
VH: EVQLLESGGGLVQPGGSLRLSCAASGFTFSWYKMTWVRQAPGKGLEWVSSISPSGGFTSYADSVKGRFTISRDNSKNTLYLQMNSLRAEDTAVYYCARDLDIRHAFDIWGQGTMVTVSS
VL: DIQMTQSPGTLSLSPGESGTLSCRASESVSSRHFAWYQQKPGQAPRLLIYGASSRPTGIPDRFSGSGSGTDFTLTLSRLEPEDFAVYFCQYYGSSPYTFGGGTKVEMK
notes: as for B1

Experiments:
[1] = target: T6, recombinant HMG1 produced in E. coli as a calmodulin binding protein (CBP) fusion (human); assay: cell-based or functional assay
[2] = target: T1, HMG2 coated on ELISA plates; assay: direct ELISA, HMGB2 coated at 5 ug/mL, antibody at 10 ug/mL, anti-human kappa/lambda-HRP, OD 490
Protocol: (§1) Binding to HMG1 vs. HMG2: Ultra high-binding ELISA plates (ThermoLab systems, #3855) were coated with either 5 ug/mL of Calf thymus HMGB1 or HMBG2 diluted in 10 mM Phosphate buffered saline (PBS), pH 7.2 and incubate overnight at 4 degrees. The plates were washed twice with Ca and Mg free PBS and 100 microliters of anti-HMGB1 antibody diluted in 10 mM PBS, pH 7.2+1% bovine serum albumin (BSA) to a final concentration of 10 ug/mL was added to each well and the plates were incubated 1 hour at room temperature. The wells were washed three times with 100 μl of PBS, pH 7.2. HRP labeled goat-anti-human IgG Kappa-chain (KPL, #14-10-10) and goat-anti-human IgG Lambda-chain (KPL, #14-10-11) were diluted in 10 mM PBS+1% BSA 1:1000 and 100 μl were added to each well and incubated for 1 hour at room temperature. The wells were then washed three times with 100 μl of PBS, pH 7.2. OPD substrate (Pierce chemical company, #34006) was prepared following the manufacturers instructions and 100 μl of prepared substrate was added to each well and the plates incubated at room temperature in the dark for 20-30 minutes. The reaction was stopped with the addition of 100 μl of 2M H₂SO₄, and the plates read on a plate reader at a wavelength of 490 nm.

[3] = target: T2, HMG1 B Box peptide amino acids 91-169; assay: ELISA, HMG1 B Box peptide 91-169 coated at 10 ug/ml, antibody titrated, anti-human IgG-HRP, OD 450
Protocol: (§2) The plate was then blocked with 4% milk powder dissolved in PBS at 37° C. for 1 hour. The blocking solution was removed and replaced with human anti-HMG1 antibodies at various concentrations (see FIGS. 5A-B). […] HRP activity was detected with Sureblue HRP substrate (KPL). Plates were read at 450 nm using a Kinetic Microplate Reader (Molecular Devices). […] After washing and blocking with 1% BSA in PBS, the biotinylated peptides were individually added into the avidin coated wells and incubated for 30 min at room temperature. The serial diluted antibody G4, S16 and S6 at the initial concentration at 10 μg/ml were then transferred into the wells followed by adding mouse anti human IgG-HRP conjugate (Pierce). Detection was accomplished by adding 50 μl of tetramethylbenzidine (TMB) substrate (KPL) and the absorbance was read at 450 nm.

[4] = target: T3, HMG1 B Box peptide amino acids 150-183; assay: ELISA, HMG1 B Box peptide 150-183 coated at 10 ug/ml, antibody titrated, anti-human IgG-HRP, OD 450
Protocol: as §2

[5] = target: T4, HMG1 purified from calf (bovine) thymus; assay: direct ELISA, calf thymus HMGB1 coated at 5 ug/mL, antibody at 10 ug/mL, anti-human kappa/lambda-HRP, OD 490
Protocol: as §1

[6] = target: T7, mouse RAGE/Fc fusion protein (mouse, UniProt Q62151 24-342, limits assumed); assay: ELISA (right panel): RAGE-Fc immobilized, HMGB1 titrated in the presence of 0.03 µM CpG-A
T7 construct: not shown: Fc part, not described
T7 sequence (Q62151 24-342 limits assumed): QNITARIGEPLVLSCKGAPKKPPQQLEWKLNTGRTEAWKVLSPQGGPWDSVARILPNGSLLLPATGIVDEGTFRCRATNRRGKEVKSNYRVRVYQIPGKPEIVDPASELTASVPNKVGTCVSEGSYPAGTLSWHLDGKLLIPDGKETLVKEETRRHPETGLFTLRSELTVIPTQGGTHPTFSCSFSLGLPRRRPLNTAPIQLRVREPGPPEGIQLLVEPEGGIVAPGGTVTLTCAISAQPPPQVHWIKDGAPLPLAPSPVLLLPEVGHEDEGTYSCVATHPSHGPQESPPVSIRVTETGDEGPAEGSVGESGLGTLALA

[7] = target: T5, HMGB1 in human brain tissue of multiple …; assay: staining of human brain tissue
[8] = target: T6, recombinant HMG1 produced in E. coli as …; assay: BIAcore 3000, mAb amine-coupled to CM5, HMG1 injected, steady-state model
Protocol: HMG1 Binding Affinity via BIAcore Analysis: All experiments were performed on a BIAcore 3000 instrument (BIAcore, Inc., Piscataway, N.J.). Briefly, each mAb was immobilized to a CM5 sensor chip using a standard amine coupling chemistry. Separately a reference (control) flow cell was also prepared. Two-fold, serial dilutions of HMG1 in instrument buffer were sequentially injected at a slow flow rate over the individual mAb and reference flow-cell surfaces. Following the binding and dissociation of HMG1, the mAbs surfaces were regenerated with a brief pulse of 1M NaCl-50 mM NaOH. At the end of each experiment, the binding curves were evaluated using a steady-state model available through the BIAevaluation software supplied by BIAcore, Inc. (Piscataway, N.J.).

[9] = target: T2, HMG1 B Box peptide amino acids 91-169; assay: ELISA, HMG1 B Box peptide 91-169 coated at 10 ug/ml, antibody titrated, OD 450
Protocol: as §2

[10] = target: T3, HMG1 B Box peptide amino acids 150-183; assay: ELISA, HMG1 B Box peptide 150-183 coated at 10 ug/ml, antibody titrated, OD 450
Protocol: as §2

| Binder | IC50 IL-6 [1] | binding result [2] | binding result [3] | binding result [4] | binding result [5] | EC50 (read off the curve) [6] | IC50 NO [1] | binding result [7] | Kd [8] | binding result [9] | binding result [10] |
| --- | --- | --- | --- | --- | --- | --- | --- | --- | --- | --- | --- |
| B1 | 1.67 nM | binds | binds | binds | binds | – | – | – | – | – | – |
| B2 | – | – | – | – | – | ~100 nM | – | – | – | – | – |
| B3 | 1.06 nM | – | – | – | – | – | 22 µg/mL | binds | 22 nM | no binding (tested: 10 ug/ml (log 1.0)) | no binding (tested: 10 ug/ml (log 1.0)) |
